Measurements: the domain aggregation screens of Martell et al. (2025)

Assay: soluble fraction after stress (log2 fold change); higher = more stays soluble; pooled small domains, quantitative proteomics
Conditions: stress: 75 degC
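Note: 20 min heating vs room temperature control held 20 min.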

Sequence	soluble fraction (log2)
HMNTDIHRLLDEAFVRVDMTPDAQHLKEEIRANLVARVDELEASGVPSADAARRAIAELGDVRELL	0.291
HMNTFDLSKLEEIILASRDKAMKTKEFTELDNLKNLFITAGLDVQMSKNGIKLIKGPKFNSSLLEDF	-0.878
HMNTIIIDILPKGLSIAGNQTEPKSLIQQLLMARRADPAQPILLRPAIAVPVQNVVELIDRLTAAGI	-0.306
HMNTISEADAKRIALERAGLTAADYVKVDYDQDDNEYEVEMRSGNTEYEVKISGSTGAVLEYDSETD	-0.358
HMNTISTLEITTKKDIRILDESELLKSKSSKNNIFNYLLASGDFNLLKDKLNEIDEFSDEIISYQLN	-0.788
HMNTKQRTAVMRILKQSSDPVSADDVFAALKDEYPSLALSTVYRNLERFADESMVKKDVWSDGIVRYSLAD	-0.21
HMNTLGTNIAKLRESQKLTQEELGKLSGVSRVSIYKIETGQSTPRDTTLQNIAEALHTTPSALRS	0.0781
HMNTLLYAPKVSPNPFTPNADGINDVVNISYKLLRVISAVPISVEVFDLSGRLIKTLYSGVDPLGEY	0.194
HMNTLPASVQPKKGRLYAVIQTKENGKSKPVWRSLGLPEGSNKSKVNKAFREVVKQFEEEYAERLAR	-0.181
HMNTLPTDELMKYGIINEDLSFSKKLNADDIQKFLQGYTIVADNDKNRATFQLTENNTKLKVIFLER	-0.44
HMNTLRFPEGTPEKDRMSIILASYNSGIGHVNDARRLARLNGEDPNSWEVVARYLQLKAQPEYYESEAVK	-0.204
HMNTPAENFDKAVEKYKSTNSATEKDAAFKVIEDEWIKLSDEEKKERQDEYDSIFESEGDRV	0.0843
HMNTQGWEIFEGRITTADTDLNPSGWIRIDGQRIFVISDAGFIDKGKEVSILSVDGNRVLVRK	-0.646
HMNTSMIEHMDKSTFIRFVFTNPVTHDQAVAKLMEKHMWFSTEEKAEAEIDKLLNKTNSLIESGGKLTW	0.0867
HMNTTLQLDTILRLEKNAHLLENFVRAGFTDSELGKLTDADLLQIGVPKIGDRRRLLAALAERAH	-0.904
HMNTVSPAVSAQLRQELGGELNNANFQQLQQYLQAGQRDEAIVYLTSLGIESPRAVSIVNNAMDQIG	0.494

Sequence	soluble fraction (log2)
HMNVDIVEITKNSSPNQISKVIDIGAIQIVEDLMSFGIMKAIDTPLEDSEIEQLLEKYNLIVDLIE	-2.01
HMNVDSIPGKSGIVTQGIDNLKAMGRVTVNGMEWTARSKDGSLIEEGKVVRVYGVEGVKLIVEED	0.0811
HMNVDSLPGEKAVVIKTIDNLRGTGQAVVNGLEWSAKSKDETIIDEGKVVRIVAVEGVKLVVEEE	0.0298
HMNVEALIGREGRVTDKIEANGYGRVKVDGDSWKAKSANGAEIRQNTDVRILSIDSVIITVEP	-0.766
HMNVESLVGKQVIVSETIDNLKATGQVKVNGLEWTARAADETDIIPQGTEVTINEVSGVKLIVSR	0.0398
HMNVESMVGKQGKVVVEIDNISAKGMIKVDGMEWTARSVDGEIIPKDSLVAVVSVEGVKAMVRKAE	-0.106
HMNVGKRLKSLREKYKFSLEEVAKKIKSSAGAISRYENNERKINSESLIRLSNLYNVSPEYILYG	-0.621
HMNVKQALLELMQRKPELTGSAIARAIGYSPAVISQYLKDGYPGDVVKLTTLIGDFIRRIDEKERS	-0.526
HMNVKVYATIDGDNFKVSGLKPGSNVRVYSSNGSAVFEKKAGDSEMIIPAGAWTKGIYVISADDQSIKVT	-0.0855
HMNVLGQTAIVRSLRLDATFGEVLLADGGAGLIFKARTHGDETFKKGDRVVLLEYLKDQHAYRVISETDFL	-2.45
HMNVLLGISELSHATGVTPAQLRYWVSQGYIKNYGSNKKNKFSLETVFMVRSIKIFQNQGYTLSASAKRAA	-1.38
HMNVNFVQANLANLPNIQAIYQKGNEMLNDMKRGEAREIDEAYSRVDNGVGTEKDFKVLLSFRDKIIAAMQ	-0.112
HMNVNSMIGKEGRVIEDIDNFNETGRIIVDGMEWTARAVNEQSITSGQKVVIREIQGVKAMVVPM	0.115
HMNVNTNTILKSLMETYPDSTVFKKAEIVSIANSLGFKKSDYSPLTSTDNRTDVRGQYDLSAVIIPMRESN	-0.14
HMNVPYEMVTQNGEVFYKYKVQPGEGVFAVSRTFSVSVAEILRVNPEANKGLKNGQVLLIPVPKDMIA	-1.71
